Results taken from patent US20190389957A1 (SINGAPORE HEALTH SERVICES PTE, published 2019).
Positions count from the first letter of the chain named.

Tests used:
[1] = biological target: Human IL-11, endogenously produced by TGFβ1-stimulated human cells (human) (UniProt P20809); assay: cell-based or functional assay
[2] = biological target: Mouse IL-11, endogenously produced by TGFβ1-stimulated mouse atrial fibroblasts (mouse) (UniProt P47873); assay: cell-based or functional assay
[3] = biological target: T1, Human IL-11Rα endogenously expressed on primary human cells (human, UniProt Q14626 23-422); assay: cell-based or functional assay
T1 sequence (looked up): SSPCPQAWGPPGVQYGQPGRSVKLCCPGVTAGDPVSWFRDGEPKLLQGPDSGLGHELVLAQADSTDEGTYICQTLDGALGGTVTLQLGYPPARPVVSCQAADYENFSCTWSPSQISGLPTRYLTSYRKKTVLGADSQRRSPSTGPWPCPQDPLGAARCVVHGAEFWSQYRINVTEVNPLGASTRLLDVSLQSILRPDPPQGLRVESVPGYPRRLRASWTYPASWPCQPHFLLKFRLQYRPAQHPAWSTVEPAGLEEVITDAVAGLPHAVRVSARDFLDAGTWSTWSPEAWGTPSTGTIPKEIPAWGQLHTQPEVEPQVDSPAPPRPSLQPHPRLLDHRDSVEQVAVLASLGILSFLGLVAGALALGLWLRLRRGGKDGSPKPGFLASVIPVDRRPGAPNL

[4] = biological target: T1, Human IL-11Rα endogenously expressed on …; assay: cell-based or functional assay; remark: listed apart in the source
[5] = biological target: T1, Human IL-11Rα endogenously expressed on …; assay: cell-based or functional assay; remark: listed apart in the source
[6] = biological target: T2, IL-11Rα as used in the Biacore kinetics of Example 14 (UniProt Q14626 23-363, limits assumed); assay: SPR (Biacore T200), multi-cycle kinetics, 25 C, HBS-P+ pH 7.4 with 0.1% BSA
T2 sequence (looked up): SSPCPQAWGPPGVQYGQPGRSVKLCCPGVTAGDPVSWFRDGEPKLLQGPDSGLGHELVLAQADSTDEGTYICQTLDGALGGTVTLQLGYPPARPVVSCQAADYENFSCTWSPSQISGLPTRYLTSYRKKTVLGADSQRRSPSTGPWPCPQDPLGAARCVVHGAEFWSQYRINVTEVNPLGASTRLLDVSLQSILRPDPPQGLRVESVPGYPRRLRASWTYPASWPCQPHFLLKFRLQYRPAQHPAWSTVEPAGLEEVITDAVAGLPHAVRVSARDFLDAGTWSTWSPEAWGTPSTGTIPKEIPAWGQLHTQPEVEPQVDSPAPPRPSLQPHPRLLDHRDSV
Protocol: The six antibodies were assessed by multi-cycle kinetics analysis at a final concentration of 1 μg/ml, run at 25° C. with HBS-P+ running buffer (pH 7.4) containing 0.1% BSA using a Biacore T200 instrument.
The relative KD was calculated by dividing the KD of the humanised variant by that of the 9A7 antibody assayed in the same experiment. All six humanised antibodies bound to IL-11R within two-fold of 9A7 (SEQ ID NO:7 and 13).

[7] = biological target: T1, Human IL-11Rα endogenously expressed on …; assay: cell-based or functional assay; remark: listed apart in the source
[8] = biological target: T1, Human IL-11Rα endogenously expressed on …; assay: cell-based or functional assay; remark: listed apart in the source
[9] = biological target: T3, IL-11:IL-11Rα fusion protein (hyper IL-11); assay: cell-based or functional assay
T3 chain: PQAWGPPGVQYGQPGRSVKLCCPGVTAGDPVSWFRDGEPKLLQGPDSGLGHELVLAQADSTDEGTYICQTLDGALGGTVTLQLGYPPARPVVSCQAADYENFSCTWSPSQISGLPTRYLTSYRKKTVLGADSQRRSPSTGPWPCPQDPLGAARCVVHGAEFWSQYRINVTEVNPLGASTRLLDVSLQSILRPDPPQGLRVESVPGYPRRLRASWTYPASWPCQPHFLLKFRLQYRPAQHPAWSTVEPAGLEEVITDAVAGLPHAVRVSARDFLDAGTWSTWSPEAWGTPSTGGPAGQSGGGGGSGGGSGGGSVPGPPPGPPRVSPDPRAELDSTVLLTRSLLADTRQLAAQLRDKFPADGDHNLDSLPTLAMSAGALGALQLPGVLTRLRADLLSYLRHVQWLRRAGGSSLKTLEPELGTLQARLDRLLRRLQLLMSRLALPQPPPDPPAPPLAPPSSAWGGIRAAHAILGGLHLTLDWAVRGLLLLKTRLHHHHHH

[10] = biological target: T4, Mouse IL-11Rα endogenously expressed on primary mouse fibroblasts (mouse, UniProt Q64385 24-432); assay: cell-based or functional assay
T4 sequence (looked up): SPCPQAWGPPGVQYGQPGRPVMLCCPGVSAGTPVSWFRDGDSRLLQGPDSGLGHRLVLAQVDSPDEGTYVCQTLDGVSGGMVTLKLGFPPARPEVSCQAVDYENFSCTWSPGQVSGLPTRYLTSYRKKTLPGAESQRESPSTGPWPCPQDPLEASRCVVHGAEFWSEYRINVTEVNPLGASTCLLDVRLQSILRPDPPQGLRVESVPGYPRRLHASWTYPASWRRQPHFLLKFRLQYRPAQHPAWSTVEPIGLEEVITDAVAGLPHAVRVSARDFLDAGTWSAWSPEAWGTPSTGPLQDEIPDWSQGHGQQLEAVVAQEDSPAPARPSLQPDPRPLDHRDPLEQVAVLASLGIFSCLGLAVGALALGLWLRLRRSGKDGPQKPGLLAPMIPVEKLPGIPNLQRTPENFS

[11] = biological target: T5, Recombinant human IL-11Rα (Sino Biological Cat. No. 10252-H08H) (human, UniProt Q14626 23-363); assay: SPR, BIAcore T200, multi-cycle kinetics; recombinant human IL-11Rα immobilised, antibody (IgG1 format) flowed at 100 to 1.56 nM; 1:1 model; analysis (1); Chi2 0.181 RU2
T5 construct: Bought protein, immobilised on the chip
T5 sequence (looked up): T2 sequence (looked up)

[12] = biological target: T1, Human IL-11Rα endogenously expressed on …; assay: cell-based or functional assay; remark: listed apart in the source
[13] = biological target: Tagged human IL-11Rα expressed at the surface of transiently transfected cells (human) (UniProt Q14626); assay: same assay; by the legend the percent is the strength of binding relative to the anti-FLAG positive control (100%); negative control 3%
[14] = biological target: Tagged human IL-11Rα expressed at the surface of transiently transfected cells (human) (UniProt Q14626); assay: flow cytometry of subcloned hybridoma supernatant on cells transiently transfected with FLAG-tagged human IL-11Rα (sheet head: 'cells transfected with pB1-IL11-hum.FL', 'flow cytometry (Attunes)'); fluorescent anti-mouse IgG secondary; negative control GMFI 930
[15] = biological target: T5, Recombinant human IL-11Rα (Sino …); assay: SPR, BIAcore T200, multi-cycle kinetics; recombinant human IL-11Rα immobilised, antibody (IgG1 format) flowed at 50 to 1.56 nM; 1:1 model; analysis (2); Chi2 0.0356 RU2
[16] = biological target: T3, IL-11:IL-11Rα fusion protein (hyper …); assay: cell-based or functional assay

Chain of Mouse IL-11, endogenously produced by TGFβ1-stimulated mouse atrial fibroblasts (mouse) (P47873 22-199 limits assumed): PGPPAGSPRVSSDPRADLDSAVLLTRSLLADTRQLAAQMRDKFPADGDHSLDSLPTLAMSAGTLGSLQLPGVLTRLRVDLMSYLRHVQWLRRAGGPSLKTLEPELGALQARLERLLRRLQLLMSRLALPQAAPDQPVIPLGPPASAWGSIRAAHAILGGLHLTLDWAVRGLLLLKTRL

Commercial monoclonal mouse anti-IL-11 antibody (Monoclonal Mouse IgG2A; Clone #22626; Catalog No. MAB218; R&D Systems)
fold change in percentage of αSMA-positive (activated) human atrial fibroblasts against unstimulated cultures, TGFβ1 5 ng/ml, 24 h [1]: 0.89 fold | fold change in percentage of αSMA-positive (activated) mouse atrial fibroblasts against unstimulated cultures, TGFβ1, 24 h [2]: 1.44 fold

B1: Humanised BSO-9A7 variant VH3/VL3 (antibody, V domains shown)
VH: QVQLVQSGAEVKKPGASVKVSCKASGYTFTNYWMHWLRQRPGQGLEWIGNIGPSDSKTHYNQKFKDRATLTVDKSTSTAYMELSSLRSEDTAVYYCARGDYVLFTYWGQGTLVTVSS
VL: DIVLTQSPATLSLSPGERATLSCRASQSISNNLHWYQQKPGQAPRLLIKYASQSISGIPARFSGSGSGTDFTLTISSLEPEDFAVYFCQQSYSWPLTFGQGTKLEIK
notes: Variable domains only
IC50 of inhibition of MMP2 secretion, primary human atrial fibroblasts + TGFβ1 (panel 'VH3/VL3') [3]: 0.0326 µg/mL | IC50 of inhibition of TIMP1 secretion, primary human lung fibroblasts + TGFB1 5 ng/ml (panel 'VH3/VL3') [4]: 0.0274 µg/mL | IC50 of inhibition of MMP2 secretion, human hepatic stellate cells + TGFβ1 5 ng/ml (panel 'VH3/VL3') [5]: 0.0233 µg/mL | Kd [6]: 3.61 nM | koff [6]: 0.000751 s⁻¹ | kon [6]: 208000 M⁻¹ s⁻¹ | relative KD (KD divided by KD of 9A7) [6]: 0.84 ratio to 9A7

B2: Humanised BSO-9A7 variant VH4/VL4 (antibody, V domains shown)
VH: B1 VH with A68V, L70M
VL: B1 VL with F87Y
notes: Variable domains only; also called printed once as VH4/VH4
IC50 of inhibition of TIMP1 secretion, primary human lung fibroblasts + TGFB1 5 ng/ml (panel 'VH4/VL4') [4]: 0.00419 µg/mL | IC50 of inhibition of MMP2 secretion, human hepatic stellate cells + TGFβ1 5 ng/ml (panel 'VH4/VL4') [5]: 0.00315 µg/mL | Kd [6]: 5.55 nM | koff [6]: 0.000781 s⁻¹ | kon [6]: 141000 M⁻¹ s⁻¹ | relative KD (KD divided by KD of 9A7) [6]: 1.29 ratio to 9A7

B3: Humanised BSO-9A7 variant VH4/VL3 (antibody, V domains shown)
VH: B1 VH with A68V, L70M
VL: B1 VL
notes: Variable domains only
IC50 of inhibition of MMP2 secretion, primary human atrial fibroblasts + TGFβ1 (panel 'VH4/VL3') [3]: 0.0647 µg/mL | Kd [6]: 5.57 nM | koff [6]: 0.000992 s⁻¹ | kon [6]: 178000 M⁻¹ s⁻¹ | relative KD (KD divided by KD of 9A7) [6]: 1.3 ratio to 9A7

B4: Humanised BSO-9A7 variant VH3/VL2 (antibody, V domains shown)
VH: B1 VH
VL: B1 VL with P40S, P80T
notes: T0003 heads the columns 'Heavy chain' and 'Light chain', but the entries are variable domains
Kd [6]: 3.63 nM | koff [6]: 0.000801 s⁻¹ | kon [6]: 221000 M⁻¹ s⁻¹ | relative KD (KD divided by KD of 9A7) [6]: 0.85 ratio to 9A7

B5: Humanised BSO-9A7 variant VH3/VL4 (antibody, V domains shown)
VH: B1 VH
VL: B1 VL with F87Y
notes: Variable domains only
Kd [6]: 3.71 nM | koff [6]: 0.000747 s⁻¹ | kon [6]: 201000 M⁻¹ s⁻¹ | relative KD (KD divided by KD of 9A7) [6]: 0.86 ratio to 9A7

B6: Humanised BSO-9A7 variant VH4/VL2 (antibody, V domains shown)
VH: B1 VH with A68V, L70M
VL: B1 VL with P40S, P80T
notes: Variable domains only
IC50 of inhibition of MMP2 secretion, primary human atrial fibroblasts + TGFβ1 (panel 'VH4/VL2') [3]: 0.0111 µg/mL | Kd [6]: 5.67 nM | koff [6]: 0.000932 s⁻¹ | kon [6]: 164000 M⁻¹ s⁻¹ | relative KD (KD divided by KD of 9A7) [6]: 1.32 ratio to 9A7

B7: Anti-IL-11Rα antibody clone BSO-9A7 (antibody, V domains shown)
VH: QVQLQQPGAELVRPGSSVKLSCKASGYTFTNYWMHWLKQRPVQGLEWIGNIGPSDSKTHYNQKFKDKATLTVDKSSSTAYMQLNSLTSEDSAVYYCARGDYVLFTYWGQGTLVTVSA
VL: DIVLTQSPATLSMTPGDSVSLSCRASQSISNNLHWYQQKSHESPRLLIKYASQSISGIPSRFSGSGSGTDFTLSFNSVETEDFGVYFCQQSYSWPLTFGAGTKLELK
notes: also called RA7; 9A7 VH/VL
IC50 of inhibition of MMP2 secretion, primary human atrial fibroblasts + TGFβ1 (panel '9A7') [3]: 0.00588 µg/mL | IC50 of inhibition of MMP2 secretion, human atrial fibroblasts + TGFB1 5 ng/ml, 24 h (panel 'MMP2 - TGFB - 9A7') [7]: 0.082 µg/mL | IC50 of inhibition of TIMP1 secretion, human atrial fibroblasts + TGFB1 5 ng/ml, 24 h (panel 'TIMP1 - TGFB - 9A7') [7]: 0.0974 µg/mL | IC50 of inhibition of TIMP1 secretion, primary human lung fibroblasts + TGFB1 5 ng/ml (panel '9A7') [4]: 0.00229 µg/mL | IC50 of inhibition of MMP2 secretion by HSCs stimulated with TGFβ1 (5 ng/ml, 24 h) [8]: 0.0054 nM | IC50 of inhibition of MMP2 secretion, primary mouse cardiac fibroblasts + IL-11:IL11RA (hyper IL-11) 0.2 ng/ml (panel 'IL-11:IL11RA-driven MMP2 secretion') [9]: 0.0351 µg/mL | IC50 of inhibition of MMP2 secretion, primary mouse cardiac fibroblasts + TGFB1 5 ng/ml (endogenous IL-11) (panel 'TGFB1-driven MMP2 secretion') [10]: 0.0146 µg/mL | IC50 of inhibition of MMP2 secretion, primary mouse cardiac fibroblasts + exogenous IL-11 2 ng/ml (panel 'IL-11-driven MMP2 secretion') [10]: 0.0292 µg/mL | Kd [11]: 7.85 nM | koff [11]: 0.000759 s⁻¹ | kon [11]: 96600 M⁻¹ s⁻¹ | IC50 of inhibition of MMP2 secretion, primary human hepatic stellate cells + TGFB1 5 ng/ml (endogenous IL-11); upper panel [12]: 0.00093 µg/mL | IC50 of inhibition of MMP2 secretion, primary human hepatic stellate cells + exogenous IL-11 2 ng/ml; lower panel [12]: 0.00164 µg/mL | % positive [13]: 111% | GMFI [14]: 34800 | Kd [6]: 4.29 nM | koff [6]: 0.000926 s⁻¹ | kon [6]: 216000 M⁻¹ s⁻¹ | relative KD (KD divided by KD of 9A7) [6]: 1 ratio to 9A7 | Kd [15]: 5.46 nM | koff [15]: 0.000875 s⁻¹ | kon [15]: 160000 M⁻¹ s⁻¹ | IC50 of inhibition of MMP2 secretion, human atrial fibroblasts + IL-11:IL11RA (hyper IL-11) 0.2 ng/ml (panel 'MMP2 - IL-11:IL11RA - 9A7') [16]: 0.246 µg/mL | IC50 of inhibition of TIMP1 secretion, human atrial fibroblasts + IL-11:IL11RA (hyper IL-11) 0.2 ng/ml (panel 'TIMP1 - IL-11:IL11RA - 9A7') [16]: 0.196 µg/mL
